The source of these data is patent US10328148B2, “Protein drug formulations and packages” (Purdue Research Foundation, priority 2010, dated 2019).

This series has as its system IgG. Kind of series: HP-SEC of IgG with free Protein A or Protein G: complex formation and agitation-induced aggregation. In kind it is physicochemical. The conditions noted are these: IgG:Protein A or G ratio 1:4, RT 2 h. The procedure:
Effect of proteins A and G on aggregation of IgG. High performance size exclusion chromatography (HP-SEC) is used to verify that IgG binds with Protein A or Protein G completely. 50 µL aliquots are injected to a Tosoh TSK G 13000 SWXL Gel 3000 column ([…]×7.8 mm) and separated at a flow rate of 0.5 mL/min. The mobile phase contains 50 mM potassium phosphate and 100 mM K2SO4 at pH 7.1. The relative percentage of IgG monomer and dimer are calculated in triplicate as a percentage of the total chromatographic peak area at 280 nm. Fresh IgG is incubated with free Protein A or free Protein G, respectively, at IgG:Protein A or G ratio of 1:4 at RT for 2 h before being subjected to agitation. […] Effect of agitation of protein A and protein G complexes of IgG. The prior Example 1 is repeated, subjecting the IgG+Protein A or IgG+Protein G to agitation on a shaker at room temperature for 44 h.

B1: Protein G: free Protein G, immunoglobulin-binding protein used as polyamino acid ligand (protein)
chain: TYKLILNGKTLKGETTTEAVDAATAEKVFKQYANDNGVDGEWTYDDATKTFTVTEKPEVIDASELTPAVTTYKLVINGKTLKGETTTEAVDAATAEKVFKQYANDNGVDGEWTYDDATKTFTVTEKPEVIDASELTPAVTTYKLVINGKTLKGETTTKAVDAETAEKAFKQYANDNGVDGVWTYDDATKTFTVTE
On to B1, for which the “Complex formation with IgG by HP-SEC” value is “formation of IgG-Protein A and IgG-Protein G complexes”.
